# Results published in patent publication US20020045192A1, “Arf and HDM2 interaction domains and methods of use thereof” (St. Jude Children's Research Hospital, priority 2001, published 2002).
# “Also recorded” adds a separate entry of the source.
# Tests used:
# mArfN37 = target: T1, mArfN37 (Mus musculus, UniProt Q64364); assay: SPR binding of Hdm2 constructs and Hdm2 peptides to immobilized His-tagged mArfN37
# T1 construct: An N-terminal fragment of mouse p19^Arf corresponding to residues 1-37 (mArfN37) was purified in a similar manner; made in house
# T1 sequence (Q64364 1-37 limits assumed): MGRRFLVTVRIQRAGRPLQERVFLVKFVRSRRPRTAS
# Method: Binding studies were performed using a Biacore 3000 surface plasmon resonance (SPR) instrument (Biacore, Inc.). A Tetra-His™ Antibody (Qiagen, Inc.; Cat. #34670) was covalently attached to a carboxymethylated gold surface (C-1 chip; Biacore, Inc.). The carboxymethyl groups on the surface were activated with N-ethyl-N′-(3-dimethylaminopropyl) carbodiimide (EDC) and N-hydroxysuccinimide (NHS) and the antibody was attached at pH 7.4 in 20 mM sodium phosphate buffer, 150 mM NaCl (PBS). Reactive sites remaining on the surface were blocked by reaction with ethanolamine. […] Binding was measured by flowing the non-His-tagged analyte through the reference and ligand-containing flow cells in sequence. […] Changes in the SPR response due to solvent differences and the injection process were monitored by injection of HBS-N buffer alone. […]
# It has been previously shown that a fragment of mouse p19^Arf containing the N-terminal 37 amino acids (mArfN37) can (i) bind Hdm2, (ii) cause the relocalization of Hdm2 to nucleoli, and (iii) induce cell cycle arrest in MEFs [see, U.S. patent application Ser. No. 09/480,718, Filed Jan. […] However, because mArfN37 is a relatively small polypeptide, it was determined whether it could bind a correspondingly small segment of Hdm2. […]
# GFP-p19^Arf = target: T2, GFP-p19^Arf (Mus musculus, UniProt Q64364); assay: Nuclear microinjection and live cell imaging of Texas Red labeled Hdm2 constructs in NIH 3T3 cells lacking Arf; assay type: cell-based; details: NIH 3T3 Arf-/- cells, nuclear microinjection
# T2 construct: expressed in transfected cells; host or cells: NIH 3T3 Arf-/- cells
# T2 sequence (Q64364 1-169): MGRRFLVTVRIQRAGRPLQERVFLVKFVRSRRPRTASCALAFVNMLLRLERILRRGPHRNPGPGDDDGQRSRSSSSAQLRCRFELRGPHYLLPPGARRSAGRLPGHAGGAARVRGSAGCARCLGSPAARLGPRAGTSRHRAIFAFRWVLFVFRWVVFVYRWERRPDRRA
# Method: Proteins for fluorescence microimaging studies were covalently modified using an amine-reactive, sulfosuccinimidyl ester of Texas Red™ (Molecular Probes, Inc., Cat. # C-1171). In brief, purified Hdm2-derived proteins were dialyzed into 100 mM sodium bicarbonate buffer, pH 8.3 at 2-4 mg/ml. The Texas Red™ dye was dissolved in dimethylsulfoxide at 10 mg/ml. Protein and dye 3:1 (vol:vol) were reacted for 1 hour at room temperature followed by purification using size-exclusion chromatography (NAP 5 G-25 columns, Amersham Pharmacia Biotech, Inc.). Labeled protein bands migrated more slowly than unlabeled protein in SDS-polyacrylamide gels consistent with the covalent attachment of dye.
# NIH 3T3 Arf^−/− cells passage 10-15 were cultured in Dulbecco's modified Eagle's medium (Dulbecco's modified Eagle's medium (DMEM); Gibco-Invitrogen, Inc.), 10% fetal bovine serum (FBS) at 37° C., 7% CO2. 24 hours prior to transfection, cells were plated on 35 mm dishes coated with poly-D-Lysine (Mattek, Corp.) at a density of 3×10^4 cells per dish. Cells were transfected with a pcDNA plasmid (Invitrogen) containing the GFP-p19^ARF fusion protein using Fugene-6 (Roche Molecular Biochemicals, Inc.) in media according to the protocol supplied by the manufacturer. Sixteen hours post-transfection, the transfection media was refreshed with DMEM, 10% FBS and the cells were allowed to recover for four hours. […] An Axiovert 135 TV inverted fluorescence microscope with an automated stage controller (Carl Zeiss, Inc.) and circulating water bath heater (Fisher) was used for both microinjection and imaging. […]
# Hdm2 deletion constructs tagged with a fluorescent label (Texas Red™) were microinjected into the nucleus of NIH 3T3 cells. importantly, the NIH 3T3 cell line used lacks the gene for Arf. […] A covalently bound fluorescent label was used to detect Hdm2 fragments instead of immuno fluorescence to avoid nonspecific background staining and staining variability due to differential antibody reactivity. […]
# Hdm2 210-304 = target: T3, Hdm2 210-304 (Homo sapiens, UniProt Q00987); assay: CD-based binding assay, β-strand formation with Hdm2 210-304
# T3 construct: poly-His (thrombin-cleavable, from pET28a) (cleaved yes); made in house; host or cells: E. coli BL21 (DE3)
# T3 sequence (Q00987 210-304): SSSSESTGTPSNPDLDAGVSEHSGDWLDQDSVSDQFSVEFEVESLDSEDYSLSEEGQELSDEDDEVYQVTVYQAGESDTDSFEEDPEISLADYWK
# Method: (§1) Spectra were recorded at 25° C. using an Aviv Model 62A DS circular dichroism spectropolarimeter (Aviv Instruments, Inc.) equipped with a thermoelectric temperature control unit. All samples were prepared in 10 mM Tris-HCl, pH 7.0 at 0.02-0.2 mM as determined by amino acid analysis. Spectra were recorded using 1 mm quartz cuveftes and reported spectra are the average of 10 scans over the range […]. Melting experiments were recorded in 10 mm quartz cuvettes with active stirring. The signal at 216 nm (β strand minimum) was used to monitor structural changes and the signal was averaged over 15 sec. The sample temperature was increased in 1° C. steps.
# (§2) As discussed above, the addition of mArfN37 to Hdm2 210-304 results in the formation of supramolecular assemblies comprised of β-strands. Stepwise addition of sub-stoichiometric amounts of mArfN37 to Hdm2 210-304 increased β-strand secondary structure content as judged by the change in ellipticity at 200 nm using CD. […] The binding of mArfN37 to Hdm2 210-304, as monitored in this way, is saturable. Similar results were obtained when mArfN37 was mixed with the shorter fragment of Hdm2, Hdm2 210-275. Further, saturable binding is also observed when the Hdm2 fragments were added to an excess of mArfN37. These findings indicate that there are a limited number of binding sites for mArfN37 within Hdm2 210-304 and that discreet structures (containing β-strands) form when mArfN37 and Hdm2 210-304 (or 210-275) are mixed. […] Similar behavior is observed when mArfN37 binds Hdm2 210-275.
# To investigate the roles of individual Arf motifs (A1 and A2) and Arf-binding segments of Hdm2 (H1 and H2) in the interactions between Arf and Hdm2 the binding of peptides containing these small segments (A1, A2, H1, or H2) to larger protein fragments of the corresponding binding partner (mArfN37 or Hdm2 210-304) were monitored using the CD-based binding assay. […] Peptides from the Hdm2 library that were positive for mArfN37 binding on the basis of SPR (i.e. those within H1 and H2) were mixed with mArfN37 and binding was monitored in the same manner. Three peptides from the H1 segment and one from the H2 segment of Hdm2 induce β-strand secondary structure when mixed with mArfN37 (FIG. 2c). These experiments indicate that peptides containing A1, A2, H1 or H2 can interact with larger fragments of the target protein and that the interactions also occur through the formation of β-sheet secondary structure. […] Importantly, however, further reduction in the size of the interacting species led to a loss of Arf/Hdm2 binding as judged by a failure to induce structure in CD titration experiments. […] Similarly, while peptides derived from the H1 or H2 segments of Hdm2 bind mArfN37, they fail to bind peptides derived from the A1 or A2 segments of mouse or human Arf. Furthermore, mixtures of two, three, or four different peptides that contain the important binding segments (A1, A2, H1, and H2) fail to interact, in contrast to the results obtained when A1 and A2, or H1 and H2, are covalent linked in larger protein fragments. Apparently, cooperative interactions between covalently linked binding segments from one protein (A1 and A2 of Arf, or H1 and H2 of Hdm2) are minimally required for Arf/Hdm2 interactions.
# Hdm2 210-275 = target: T4, Hdm2 210-275 (Homo sapiens, UniProt Q00987); assay: CD-based binding assay, β-strand formation with Hdm2 210-275
# T4 construct: poly-His (thrombin-cleavable, from pET28a) (cleaved yes); made in house; host or cells: E. coli BL21 (DE3)
# T4 sequence (Q00987 210-275): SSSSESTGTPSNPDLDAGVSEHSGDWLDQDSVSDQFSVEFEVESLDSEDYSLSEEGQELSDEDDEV
# Method: as §1, §2
Substance,induction of β-strand secondary structure when mixed with Hdm2 210-304 (CD) (Hdm2 210-304),induction of β-strand assembly when mixed with Hdm2 210-275 (CD) (Hdm2 210-275),also measured
Hdm2 210-304: Fragment of Hdm2 corresponding to residues 210-304 of SEQ ID NO:8,–,–,binding to His-tagged mArfN37 immobilized on the SPR biosensor surface (mArfN37; His-mArfN37 captured by covalently linked His antibody): bind tightly; localization of Texas Red labeled Hdm2 construct in cells that did not express Arf (GFP-p19^Arf): evenly dispersed in the nucleoplasm; localization of Texas Red labeled Hdm2 construct when GFP-p19^Arf is expressed (GFP-p19^Arf): co-localized within nucleoli; also recorded: nucleolar localization
Hdm2 277-491: Texas Red labeled Hdm2 deletion construct containing residues 277-491,–,–,localization of Texas Red labeled Hdm2 construct when GFP-p19^Arf is expressed (GFP-p19^Arf): nucleolar localization
"human A1 (1-14): Peptide containing the human Arf motif A1, residues 1-14 (MVRRFLVTLRIRRA)",produce the random-to-β-strand structure transition,interaction,–
"human A2 (16-30): Peptide containing the human Arf motif A2, residues 16-30 (GPPRVRVFVVHIPRL)",produce the random-to-β-strand structure transition,fail to induce β-strand assembly,–
mArfN37: N-terminal fragment of mouse p19^Arf corresponding to residues 1-37 (MGRRFLVTVRIQRAGRPLQERVFLVKFVRSRRPRTAS),striking transition from random conformations to β-strand secondary structure,striking transition from random conformations to β-strand secondary structure,–
"mouse A1 (1-14): Peptide corresponding to the mouse Arf motif A1, residues 1-14 (MGRRFLVTVRIQRA)",induce the transition from random conformations to β-strand secondary structure,interaction,–
"mouse A2 (16-30): Peptide corresponding to the mouse Arf motif A2, residues 16-30 (RPLQERVFLVKFVRS)",induce the transition from random conformations to β-strand secondary structure,fail to induce β-strand assembly,–
residues 290-304 of SEQ ID NO:8: short synthetic Hdm2 peptide containing residues 290-304 of SEQ ID NO:8 (SFEEDPEISLADYWK; listed as Homo sapiens),–,–,"relative binding affinity for mArfN37 (SPR) (mArfN37; short synthetic Hdm2 peptides, 15 amino acids): modest affinity"
